Normalised SPOT signal, Boehringer light units (BLU); mean over the file's lines of this peptide data for 38 molecules are collected here from PMC314469, “Protein Interaction Networks by Proteome Peptide Scanning” (PLoS Biology, 2004).

Assay [1] deals with T1, amphyphisin SH3 (AMPH_HUMAN), P49418.
T1 chain: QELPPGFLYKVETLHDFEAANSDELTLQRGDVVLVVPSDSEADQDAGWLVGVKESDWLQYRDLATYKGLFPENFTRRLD
The experiment in a line: SPOT array.

Assay [2] deals with endophilin SH3 (SH3G2_HUMAN), Q99962. The experiment in a line: SPOT array.

LPLPFSRPQKIYHF [O95047 163-176]: the normalised SPOT signal, Boehringer light units (BLU); mean over the file's lines of this peptide in assay [1] amounted to 428; in assay [2], 680.
Consider LPLPPPRPPLLSAR [Q9P0P4 137-151], for which the normalised SPOT signal, Boehringer light units (BLU); mean over the file's lines of this peptide stood at 2320 in assay [1] and 8510 in assay [2].
For LPPLPKRPALEKTN [Q9NR56 294-307], the normalised SPOT signal, Boehringer light units (BLU); mean over the file's lines of this peptide in assay [1] was determined as 160; in assay [2], 2280.
For LPRSPPRPPRLWSF [Q9UKB5 52-66], the normalised SPOT signal, Boehringer light units (BLU); mean over the file's lines of this peptide is 15300 in assay [1] and 24000 in assay [2].
With APQPPPRPPSPRYE [Q9Y566 1372-1386], the figures for the normalised SPOT signal, Boehringer light units (BLU); mean over the file's lines of this peptide in assay [1] and in assay [2] were 1320 and 14500, respectively.
In the same order, the values of LRPVPGKPPGVDPL [Q04727 335-349] are 66.4 and 32.5.
In the case of LRATLKRPEVIATS [Q96JV6 461-474], the normalised SPOT signal, Boehringer light units (BLU); mean over the file's lines of this peptide in assay [1] amounted to 37.9; in assay [2], 97.1.
As for LQRQLKRPRPVILD [Q9H3P5 284-297], the normalised SPOT signal, Boehringer light units (BLU); mean over the file's lines of this peptide turned out to be 41.9 in assay [1] and 194 in assay [2].
In the same order, the values of LPPKPARPPAVSPA [O60885 879-893] are 215 and 4260.
In the same order, the values of LRKRPLKPPAKKIM [O14789 574-588] are 91.3 and 6220.
Regarding AAPPPAKPPPPPQP [O15399 900-914], the results for the normalised SPOT signal, Boehringer light units (BLU); mean over the file's lines of this peptide in assay [1] and in assay [2] were 41.3 and 77.6, respectively.
In the case of LREDFVRPLREGIL [Q9P2E3 383-396], the values for the normalised SPOT signal, Boehringer light units (BLU); mean over the file's lines of this peptide in assay [1] and in assay [2] were 5300 and 208, respectively.
In the case of LRPPPMRPVRPVVQ [O43295 603-616], the normalised SPOT signal, Boehringer light units (BLU); mean over the file's lines of this peptide was 7210 in assay [1] and 16200 in assay [2].
As to LRGKFKRPPLRRVR [P48788 102-115], the normalised SPOT signal, Boehringer light units (BLU); mean over the file's lines of this peptide in assay [1] turned out to be 35.8; in assay [2] it was 50.6.
Regarding LPVSLTRPPKLVLH [Q9Y2E6 378-391], the normalised SPOT signal, Boehringer light units (BLU); mean over the file's lines of this peptide in assay [1] was 121; in assay [2], 272.
For LRQPLRRPFRPNGL [Q16753 167-180], the normalised SPOT signal, Boehringer light units (BLU); mean over the file's lines of this peptide in assay [1] was 1690; in assay [2] it was 489.
In the same order, the values of LRAMPSRPPRLLAT [Q9UNU2 285-298] are 5160 and 7160.
LRPVPRRPSTWSRR [Q9NWJ0 49-62]: the normalised SPOT signal, Boehringer light units (BLU); mean over the file's lines of this peptide in assay [1] came to 2420; in assay [2] it was 4830.
On to LQLGPSRPPTGEAL [Q9NXY3 388-402], for which the normalised SPOT signal, Boehringer light units (BLU); mean over the file's lines of this peptide in assay [1] was 38; in assay [2], 62.4.
In the same order, the values of LRGKFKRPTLRRVR [P19429 134-147] are 23.3 and 38.
Take LQSDPPRPHRILQA [Q06481 479-492]: the normalised SPOT signal, Boehringer light units (BLU); mean over the file's lines of this peptide in assay [1] stood at 170; in assay [2], 184.
As to LQGIFTRPSKLTRQ [O43611 94-107], the normalised SPOT signal, Boehringer light units (BLU); mean over the file's lines of this peptide came out at 324 in assay [1] and 210 in assay [2].
Turning to LRRHPSRPMRQSRR [Q9NYU0 896-909], the normalised SPOT signal, Boehringer light units (BLU); mean over the file's lines of this peptide in assay [1] came out at 3450; in assay [2], 412.
In the same order, the values of LQFRIRRPRPPARG [Q96QS4 5-18] are 84.3 and 48.5.
For the molecule APQSPRRPPHPLPP [P12270 2055-2069], the normalised SPOT signal, Boehringer light units (BLU); mean over the file's lines of this peptide in assay [1] amounted to 339; in assay [2], 2810.
In the same order, the values of LPLPPARPPVLHSS [O95098 58-72] are 1580 and 3620.
As to LQKQPRRPRRWVTV [O95125 124-137], the figures for the normalised SPOT signal, Boehringer light units (BLU); mean over the file's lines of this peptide in assay [1] and in assay [2] were 2180 and 220, respectively.
As for LPQWPRRPGRRWPA [Q9Y6F2 30-43], the figures for the normalised SPOT signal, Boehringer light units (BLU); mean over the file's lines of this peptide in assay [1] and in assay [2] were 820 and 7880, respectively.
LRWGFSRPRKDKGL [Q9P2P9 1564-1577]: the normalised SPOT signal, Boehringer light units (BLU); mean over the file's lines of this peptide in assay [1] turned out to be 259; in assay [2], 102.
On to LRRLLKRPELEEIF [Q96FL6 71-84], for which the figures for the normalised SPOT signal, Boehringer light units (BLU); mean over the file's lines of this peptide in assay [1] and in assay [2] were 35.9 and 59.1, respectively.
Regarding APQPPGRPPTPGPP [Q14957 973-987], the normalised SPOT signal, Boehringer light units (BLU); mean over the file's lines of this peptide came to 307 in assay [1] and 820 in assay [2].
In the same order, the values of LQPRPRRPREAPDT [Q15653 147-160] are 412 and 222.
In the case of LPPLPHRPPQNPFV [P42694 1701-1715], the normalised SPOT signal, Boehringer light units (BLU); mean over the file's lines of this peptide in assay [1] worked out at 261; in assay [2] it was 79.
For LSADPERPGRFRLE [Q9H0F6 46-59], the normalised SPOT signal, Boehringer light units (BLU); mean over the file's lines of this peptide in assay [1] was 37.1; in assay [2], 121.
For the molecule LQRRLKRPETPTHD [Q9NVU6 531-544], the normalised SPOT signal, Boehringer light units (BLU); mean over the file's lines of this peptide in assay [1] was 28.9; in assay [2], 41.8.
For LQPRPRRPREAADT [Q96LS1 115-128], the results for the normalised SPOT signal, Boehringer light units (BLU); mean over the file's lines of this peptide in assay [1] and in assay [2] were 371 and 329, respectively.
In the same order, the values of LQAELRRPPPAPAQ [O94766 54-67] are 26.4 and 21.1.
In the same order, the values of LPPDIERPYKAEPL [Q9Y4U3 288-301] are 75.1 and 95.9.
